According to PMC10849882 (The Journal of Cell Biology, 2024):

Target: the molecule itself
Experiment: negative stain EM

Protein	binding result
IMPDH1(514)-S477D (enzyme) not shown	binds
IMPDH1(514)-WT (enzyme) not shown	binds
